Data published in PMC6816459 (Methods in molecular biology (Clifton, N.J.), 2019).

Molecular target: the molecule itself

B1: C. elegans Vps4 (enzyme, UniProt Q9BL83 1-430, looked up)
chain: MSVPALQKAIELVTKATEEDTAGRYDQALRLYDQAIEYFLHAIKYESQGDKQRNAIRDKVGQYLNRAEQIKTHLKDGKTQKKPVKDGKDDSDEDEDKKKFQDKLSGAIVMEKPNVKWTDIAGLEGAKEALKEAVILPIKFPQLFTGNRKPWQGILLFGPPGTGKSYIAKAVATEAGESTFFSISSSDLMSKWLGESEKLVKNLFALAREHKPSIIFIDEIDSLCSARSDNESESARRIKTEFMVQMQGVGLNNDGILVLGATNIPWILDSAIRRRFEKRIYIPLPDIHARKEMFRIDVGKNYNTLTDQDFKVLAERCEGYSGYDISILVKDALMQPVRRVQSATHFKHVSGPSPKDPNVIAHDLLTPCSPGDPHAIAMNWLDVPGDKLANPPLSMQDISRSLASVKPTVNNTDLDRLEAFKNDFGQDGQE
stoichiometry N: 6
